T1: human Protein S (human, UniProt P07225 42-676)
T1 construct: also called ProS; ProS1
T1 sequence: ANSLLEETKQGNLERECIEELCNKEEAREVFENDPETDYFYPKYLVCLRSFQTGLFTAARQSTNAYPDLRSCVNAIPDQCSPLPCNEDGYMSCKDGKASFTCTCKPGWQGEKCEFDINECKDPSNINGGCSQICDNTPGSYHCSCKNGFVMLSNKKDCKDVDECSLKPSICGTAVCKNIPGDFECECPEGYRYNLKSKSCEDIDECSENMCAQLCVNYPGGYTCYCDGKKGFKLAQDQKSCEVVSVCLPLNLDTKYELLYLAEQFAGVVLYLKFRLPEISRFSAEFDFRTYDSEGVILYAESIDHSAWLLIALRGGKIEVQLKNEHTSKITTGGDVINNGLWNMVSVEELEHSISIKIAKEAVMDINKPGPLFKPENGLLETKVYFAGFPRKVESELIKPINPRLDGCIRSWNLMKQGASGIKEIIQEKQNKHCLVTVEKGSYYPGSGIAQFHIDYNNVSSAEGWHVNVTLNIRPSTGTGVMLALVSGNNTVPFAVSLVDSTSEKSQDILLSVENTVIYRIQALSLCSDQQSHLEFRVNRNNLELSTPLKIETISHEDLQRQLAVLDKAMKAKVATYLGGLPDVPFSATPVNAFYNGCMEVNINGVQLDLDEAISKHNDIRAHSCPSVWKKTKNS

T2: Protein S-C4BP complex (human, UniProt P04003 49-597; P20851 18-252)
T2 construct: C4BP preparation from Complement Technologies that contains Protein S precomplexed to human C4BP; also called ProS-C4BP Complex; C4BP-Protein S complex
T2 sequence 1: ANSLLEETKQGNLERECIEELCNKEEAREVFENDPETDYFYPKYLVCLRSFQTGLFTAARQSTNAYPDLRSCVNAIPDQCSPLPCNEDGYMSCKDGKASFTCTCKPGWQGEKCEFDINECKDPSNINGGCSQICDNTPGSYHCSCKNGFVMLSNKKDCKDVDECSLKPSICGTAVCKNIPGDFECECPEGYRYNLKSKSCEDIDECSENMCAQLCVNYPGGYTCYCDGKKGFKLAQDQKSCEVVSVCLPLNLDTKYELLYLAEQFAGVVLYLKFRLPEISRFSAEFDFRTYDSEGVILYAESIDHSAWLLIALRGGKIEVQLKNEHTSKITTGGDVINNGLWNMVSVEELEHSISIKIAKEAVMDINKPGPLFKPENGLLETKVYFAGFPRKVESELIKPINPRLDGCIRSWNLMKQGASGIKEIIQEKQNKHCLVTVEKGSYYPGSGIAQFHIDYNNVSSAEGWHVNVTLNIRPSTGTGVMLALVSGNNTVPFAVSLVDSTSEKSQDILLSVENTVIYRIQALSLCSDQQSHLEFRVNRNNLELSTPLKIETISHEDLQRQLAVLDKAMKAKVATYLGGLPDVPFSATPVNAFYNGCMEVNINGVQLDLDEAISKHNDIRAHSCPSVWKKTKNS
T2 sequence 2: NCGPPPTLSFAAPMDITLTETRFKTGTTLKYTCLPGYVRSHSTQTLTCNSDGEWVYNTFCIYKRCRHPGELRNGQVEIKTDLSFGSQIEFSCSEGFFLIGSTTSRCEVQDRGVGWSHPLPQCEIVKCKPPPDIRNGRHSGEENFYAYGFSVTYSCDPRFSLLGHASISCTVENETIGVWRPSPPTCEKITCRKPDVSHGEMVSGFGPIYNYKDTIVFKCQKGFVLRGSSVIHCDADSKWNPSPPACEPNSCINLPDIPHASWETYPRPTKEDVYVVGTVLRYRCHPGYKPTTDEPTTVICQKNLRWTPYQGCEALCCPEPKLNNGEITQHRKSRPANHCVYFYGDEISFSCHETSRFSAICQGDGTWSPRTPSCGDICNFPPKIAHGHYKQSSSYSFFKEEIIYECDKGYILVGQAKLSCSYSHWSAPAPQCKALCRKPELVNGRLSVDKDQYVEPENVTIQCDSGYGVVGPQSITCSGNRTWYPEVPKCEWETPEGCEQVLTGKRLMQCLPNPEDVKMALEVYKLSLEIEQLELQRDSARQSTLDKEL
T2 sequence 3: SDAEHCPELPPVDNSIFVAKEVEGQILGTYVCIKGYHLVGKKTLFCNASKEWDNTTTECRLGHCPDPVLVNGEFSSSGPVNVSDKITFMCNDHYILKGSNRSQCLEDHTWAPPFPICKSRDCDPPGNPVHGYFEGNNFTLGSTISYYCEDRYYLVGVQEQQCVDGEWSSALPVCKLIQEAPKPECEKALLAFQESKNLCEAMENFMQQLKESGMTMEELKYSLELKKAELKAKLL


Tests used:
[1] = molecular target: T3, cynomolgus monkey Protein S (cynomolgus monkey); assay: BLI Octet; antibody on anti-human Fc probe; Protein S 7.81-500 nM; 4 mM CaCl2
T3 construct: also called cyno Protein S
Procedure: (§1) Binding characteristics of the Protein S antibodies were also further characterized using Octet. Using the Octet System (Sartorius), the binding of each antibody to both human and cynomolgus monkey (“cyno” in Table 10) Protein S was determined. The human Fc antibodies were immobilized onto anti-human Fc capture probes by placing the probes into 10 μg/ml antibody solution in 10 mg/ml bovine serum albumin, 20 mM Tris pH 7.0, 150 mM NaCl, and 4 mM calcium chloride. […] Next, the probes were placed into buffer and the dissociation rates were measured.

human Protein S [2] = molecular target: T1, human Protein S; assay: as above
Procedure: as §1

Protein S-C4BP complex = molecular target: T2, Protein S-C4BP complex; assay: BLI Octet; antibody on anti-human Fc probe
Procedure: The Octet assay was used to determine the capability of the Protein S antibodies provided herein to bind to Protein S either alone, or when complexed to C4BP.
Using the Octet System (Sartorius), the binding of each antibody to both Protein S and Protein S in complex with C4BP was determined. It had previously been determined that the C4BP preparation from Complement Technologies contains Protein S precomplexed to human C4BP. Therefore, this preparation represented the Protein S-C4BP complex and plasma purified Protein S from Haematologic Technologies was used as the source of free Protein S. The human Fc antibodies were immobilized onto anti-human Fc capture probes by placing the probes into 10 μg/ml antibody solution in 10 mg/ml bovine serum albumin, 20 mM Tris pH 7.0, 150 mM NaCl, and 4 mM calcium chloride. Then the bound antibodies were placed into solutions containing either 75 μg/ml Protein S or 100 μg/ml C4BP (C4BP-Protein S complex).

human Protein S [3] = molecular target: T1, human Protein S; assay: SPR Biacore X100; antibody captured by anti-human IgG (Fc); Protein S 2-128 nM; 5 mM CaCl2; 1:1 fit
Procedure: Binding characteristics of the Protein S antibodies were also determined. Binding interaction analysis was obtained by Surface Plasmon Resonance in a Biacore X100 instrument. The human anti-IgG (Fc) antibody was immobilized to the carboxymethylated dextran membrane on the sensor chip surface (CM5) via the free amine method for a contact time of 420 seconds. Human anti-IgG antibody at 25 μg/mL in 0.15 M NaCl was immobilized to 9,785 RU in 10 mM sodium acetate pH 5.0.
Dilution and running buffer were as follows: Hbs−EP+5 mM CaCl₂. Regeneration was obtained by 3 M MgCl₂. Binding constants (ka, kd, and KD) were determined using the Biacore X100 evaluation software, assuming a 1:1 interaction of Protein S and the tested monoclonal antibody under investigation.

Row | Binder | Kd [1] [nM] | koff [1] [s⁻¹] | kon [1] [M⁻¹ s⁻¹] | Kd (human Protein S [2]) [nM] | koff (human Protein S [2]) [s⁻¹] | kon (human Protein S [2]) [M⁻¹ s⁻¹] | binding result (Protein S-C4BP complex) | Kd (human Protein S [3]) [nM] | koff (human Protein S [3]) [s⁻¹] | kon (human Protein S [3]) [M⁻¹ s⁻¹]
1 | Antibody 39 (antibody, V domains shown, Same variable regions as Antibody 40) VH: EVQLVESGGGLVQPGGSLRLSCAASGFTFSSYSMNWVRQAPGKGLEWVAYISSSTRTIFYADSVKGRFTISRDNAKNSLYLQMNSLRDEDTAFYYCARERSAFDYWGQGTLVTVSS VL: SYVLTQPPSVSVAPGQTARITCGGDNIGGKSVHWYQQKPGQAPVMVVYDDSDRPSGIPERFAGSNSGNTATLAISRVEAGDEADYYCQVWEITSDHPAFGGGTRLTVL | 0.419 | 8.02e-05 | 191000 | 0.25 | 5.84e-05 | 234000 | no binding (tested: 100 µg/ml C4BP (C4BP-Protein S complex)) | – | – | –
2 | Antibody 11 (antibody, V domains shown, Same variable regions as Antibody 23) VH: QVQLVQSGAEVKKPGASVKVSCKSSGHTFTGYYMHWVRQAPGQGLEWMGWINPNSGDTNYAQKFQGRVTMTRDTSISTAYMEMSRLRSDDTAVYYCARDSQILWFGELGYWGQGTLVTVSS VL: QAVVTQESALTTSPGETVTLTCRSSTGAVTASNYANWVQEKPDHLFTGLIGSTNNRAPGVPARFSGSLIGDKAALTITGAQTEDEAIYFCALWYSDHFVFGGGTKLTVL | < 0.001 | < 1e-07 | 82100 | 0.399 | 3.4e-05 | 85200 | no binding (tested: 100 µg/ml C4BP (C4BP-Protein S complex)) | 9.6 | 0.00113 | 116000
3 | Antibody 41 (antibody, V domains shown, Same variable regions as Antibody 42) VH: QVQLVQSGSEVKKPGASVKVSCKASGYTFTNYYIHWVRQAPGQGLEWMGIITPSGGTTSYAQKFQGRVTMTRDTSTNTVYMGLSSLRSEDTAMYYCARAGVQLDRRGWFDPWGQGTLVTVSS VL: SYELTQPPSVSVSPGQTASITCSGDKLGDKYVFWYQQKPGQSPVLVIYQDSKRPSGIPERFSGSNSGNTATLTISGTQTMDEADYYCQAWDSSTVGFGGGTKLAVL | 19.5 | 0.00188 | 96400 | 13.8 | 0.0011 | 80000 | no binding (tested: 100 µg/ml C4BP (C4BP-Protein S complex)) | – | – | –
4 | Antibody 25 (antibody, V domains shown, Same variable regions as Antibody 31) VH: QVQLQESGPGLVKPSETLSLTCTVSGGSISGNYWSWIRQPPGKGLEWIGYIYYSGSTNYNPSLKSRVTISVDTSKNQFSLKLSSVTAADTAVYYCARDLDYFTWGAYSDWYFDLWGRGTLVTVSS VL: DIQMTQSPSSLSASVGDRVTITCRASQSISTFLNWYQQKPGKAPKLLIYATSSLRSGVPSRFSGSGSGTDFTLTISSLQPEDFAIYYCQQSYSTPRTFGQGTQVEIK | < 0.001 | < 1e-07 | 124000 | < 0.001 | < 1e-07 | 143000 | no binding (tested: 100 µg/ml C4BP (C4BP-Protein S complex)) | – | – | –

Reference: patent publication US20230083243A1 (VEGA THERAPEUTICS, published 2023)
